# Data published in article PMC7747229 (Nature, 2020).
# Several values for one entry are separate records, joined by “and”; a condition that tells them apart may be missing. Equal values may be shown once.
# B1: KAT1em (KAT1 from Arabidopsis thaliana, amino acids M1-S502) (domain or fragment)
# chain: not shown
# Biological target: the molecule itself
# Assay: cryo-EM structure
protein,measurement,value
B1,stoichiometry N,8 and 4
